Data reported in paper PMC8769072 (2022).

T1: MAP1A1836-1851 (Homo sapiens (Human), UniProt P78559)
T1 chain: PSWLADIPPWVPKDRP

T2: ITB3763-778 (Homo sapiens (Human), UniProt P05106)
T2 chain: AKWDTANNPLYKEATS


What was measured:
MAP1A1836-1851 = biological target: T1, MAP1A1836-1851; experiment: FP competition
ITB3763-778 = biological target: T2, ITB3763-778; experiment: FP competition

| Kd (MAP1A1836-1851) | Kd (ITB3763-778) | Binder |
| --- | --- | --- |
| 355 µM | – | SFN 14-3-3 (protein) MERASLIQKAKLAEQAERYEDMAAFMKGAVEKGEELSCEERNLLSVAYKNVVGGQRAAWRVLSSIEQKSNEEGSEEKGPEVREYREKVETELQGVCDTVLGLLDSHLIKEAGDAESRVFYLKMKGDYYRYLAEVATGDDKKRIIDSARSAYQEAMDISKKEMPPTNPIRLGLALNFSVFHYEIANSPEEAISLAKTTFDEAMADLHTLSEDSYKDSTLIMQLLRDNLTLWTADNAGEEGGEAPQEPQS |
| – | 500 µM | TLN1 PTB (protein) GVSFFLVKEKMKGKNKLVPRLLGITKECVMRVDEKTKEVIQEWNLTNIKRWAASPKSFTLDFGDYQDGYYSVQTTEGEQIAQLIAGYIDIILK |
